Data taken from IntAct's records for PubMed 15601840.

B1: Structural maintenance of chromosomes protein 6 (Homo sapiens), Q96SB8 (parent)
chain: MAKRKEENFSSPKNAKRPRQEELEDFDKDGDEDECKGTTLTAAEVGIIESIHLKNFMCHSMLGPFKFGSNVNFVVGNNGSGKSAVLTALIVGLGGRAVATNRGSSLKGFVKDGQNSADISITLRNRGDDAFKASVYGNSILIQQHISIDGSRSYKLKSATGSVVSTRKEELIAILDHFNIQVDNPVSVLTQEMSKQFLQSKNEGDKYKFFMKATQLEQMKEDYSYIMETKERTKEQIHQGEERLTELKRQCVEKEERFQSIAGLSTMKTNLESLKHEMAWAVVNEIEKQLNAIRDNIKIGEDRAARLDRKMEEQQVRLNEAEQKYKDIQDKLEKISEETNARAPECMALKADVVAKKRAYNEAEVLYNRSLNEYKALKKDDEQLCKRIEELKKSTDQSLEPERLERQKKISWLKERVKAFQNQENSVNQEIEQFQQAIEKDKEEHGKIKREELDVKHALSYNQRQLKELKDSKTDRLKRFGPNVPALLEAIDDAYRQGHFTYKPVGPLGACIHLRDPELALAIESCLKGLLQAYCCHNHADERVLQALMKRFYLPGTSRPPIIVSEFRNEIYDVRHRAAYHPDFPTVLTALEIDNAVVANSLIDMRGIETVLLIKNNSVARAVMQSQKPPKNCREAFTADGDQVFAGRYYSSENTRPKFLSRDVDSEISDLENEVENKTAQILNLQQHLSALEKDIKHNEELLKRCQLHYKELKMKIRKNISEIRELENIEEHQSVDIATLEDEAQENKSKMKMVEEHMEQQKENMEHLKSLKIEAENKYDAIKFKINQLSELADPLKDELNLADSEVDNQKRGKRHYEEKQKEHLDTLNKKKRELDMKEKELEEKMSQARQICPERIEVEKSASILDKEINRLRQKIQAEHASHGDREEIMRQYQEARETYLDLDSKVRTLKKFIKLLGEIMEHRFKTYQQFRRCLTLRCKLYFDNLLSQRAYCGKMNFDHKNETLSISVQPGEGNKAAFNDMRALSGGERSFSTVCFILSLWSIAESPFRCLDEFDVYMDMVNRRIAMDLILKMADSQRFRQFILLTPQSMSSLPSSKLIRILRMSDPERGQTTLPFRPVTQEEDDDQR
B2: Structural maintenance of chromosomes protein 5 (Schizosaccharomyces pombe (strain ATCC 38366 / 972)), O13710 (parent)
chain: MDGLRPSKRRKSNPLYSDYALGSIVRIKLVNFVTYDYCELFPGPYLNLIIGPNGTGKSTIVSAICIGLGWPPKLLGRAKEAREFIKYGKNTATIEIEMKYRDDETVTITRQISQDKSSSFSINREACATSSITSLMDTFNVQLNNLCHFLPQDRVAEFAQLDPYSRLMETERAIDHEGLLPAHEKLIDLRKREREILQNKNQGQSTLNSLKDRQQALEKEVNIFKEREKIKSYIEMLGLAKMLVIYREKTNVFNQLRADKKKLKKDLKDLVEEFQPILDKGEELRSDLKLKDDTFNDYSSASMELNTSNLRARASFSNFMENEKKLYEKVNTNRTLLRNANLTLNEAQQSVKSLTERQGPRPSDNGVQDLQEKMQEVNAEKLQHENEKLESSHELGSIRTLKAQKLIDLDNIKRELSYYNDATKRKLDFMSSAPGWEDAYQTYQLLKEYESAFEAPAYGPIYMNLKCKEKGFAALIEGFFRTDTFRTFIMSNYNDYLKLMDLITSKTKYTPTIREFSSERKKKIEDFEPPCSREKLQSFGFDGYVIDFLEGPEVVLVALCHMLKIHQIPIAKRELPPASVNALNNFRLANGDPVLKTYLAGSSIHLVFRSAYGDREITRRTDPLPSRSIYFSENVEMDLVKRKEEQLNAQLSQLENLQNEERKLQEKVNEHESLLSRTNDILSTLRKERDEKLIPIHEWQQLQERIEHQTLLLRQREKVPEQFAAEIEKNEDIRKENFEALMNSVLKVKENSIKATNNFEKMLGSRLNVIEAKYKLEKHEMDANQVNARLTEVQDRLKDITDKLASAREDAMSLYGSVVDSLQTQSSDRQTAITELNEEFATSSEVDNKISIEETKLKFMNVNSYVMEQYDARKKEIEELESKMSDFDQSVEELQDEMNSIKEDWVSKLEENVQCISDRFSKGMSGMGYAGEVRLGKSDDYDKWYIDILVQFREEEGLQKLTGQRQSGGERSVSTIMYLLSLQGLAIAPFRIVDEINQGMDPRNERVVHRHIVNSVCDNAVSQYFLVTPKLLPDLTYHRNLKVLCICNGAWLPATFRTSLSTYFEKLKKSALISSS
partner: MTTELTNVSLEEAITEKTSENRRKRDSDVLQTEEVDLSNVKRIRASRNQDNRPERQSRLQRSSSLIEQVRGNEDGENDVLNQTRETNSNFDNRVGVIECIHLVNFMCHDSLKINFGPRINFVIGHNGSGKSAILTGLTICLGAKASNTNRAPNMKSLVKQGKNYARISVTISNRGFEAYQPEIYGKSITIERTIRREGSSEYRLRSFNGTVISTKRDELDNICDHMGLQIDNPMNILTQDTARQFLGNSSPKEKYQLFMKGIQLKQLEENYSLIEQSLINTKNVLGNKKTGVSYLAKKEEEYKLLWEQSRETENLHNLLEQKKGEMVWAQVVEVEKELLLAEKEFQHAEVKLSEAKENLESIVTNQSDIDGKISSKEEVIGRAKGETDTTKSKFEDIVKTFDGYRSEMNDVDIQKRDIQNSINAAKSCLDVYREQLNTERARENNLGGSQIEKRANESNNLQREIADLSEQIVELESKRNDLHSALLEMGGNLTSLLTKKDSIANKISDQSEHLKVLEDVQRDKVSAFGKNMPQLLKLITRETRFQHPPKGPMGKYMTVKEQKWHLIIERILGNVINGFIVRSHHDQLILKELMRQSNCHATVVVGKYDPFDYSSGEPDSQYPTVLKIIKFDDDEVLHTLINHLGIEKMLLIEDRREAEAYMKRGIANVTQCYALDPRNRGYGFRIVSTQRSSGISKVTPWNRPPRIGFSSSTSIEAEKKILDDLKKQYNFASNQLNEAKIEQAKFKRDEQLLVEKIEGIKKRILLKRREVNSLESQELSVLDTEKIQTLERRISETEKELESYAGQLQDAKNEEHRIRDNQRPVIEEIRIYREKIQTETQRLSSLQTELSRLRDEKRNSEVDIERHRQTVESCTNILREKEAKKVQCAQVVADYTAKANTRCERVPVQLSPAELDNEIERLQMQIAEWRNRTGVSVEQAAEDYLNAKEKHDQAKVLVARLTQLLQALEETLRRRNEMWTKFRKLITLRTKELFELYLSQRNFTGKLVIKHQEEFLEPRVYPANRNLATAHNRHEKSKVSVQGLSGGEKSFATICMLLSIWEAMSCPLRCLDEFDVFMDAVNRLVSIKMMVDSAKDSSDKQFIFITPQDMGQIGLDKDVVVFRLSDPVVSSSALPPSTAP

Variants of: B1
Conditions: with smc5_human SMC5, Q8IY18
Chain of smc5_human SMC5, Q8IY18 (Q8IY18 whole entry): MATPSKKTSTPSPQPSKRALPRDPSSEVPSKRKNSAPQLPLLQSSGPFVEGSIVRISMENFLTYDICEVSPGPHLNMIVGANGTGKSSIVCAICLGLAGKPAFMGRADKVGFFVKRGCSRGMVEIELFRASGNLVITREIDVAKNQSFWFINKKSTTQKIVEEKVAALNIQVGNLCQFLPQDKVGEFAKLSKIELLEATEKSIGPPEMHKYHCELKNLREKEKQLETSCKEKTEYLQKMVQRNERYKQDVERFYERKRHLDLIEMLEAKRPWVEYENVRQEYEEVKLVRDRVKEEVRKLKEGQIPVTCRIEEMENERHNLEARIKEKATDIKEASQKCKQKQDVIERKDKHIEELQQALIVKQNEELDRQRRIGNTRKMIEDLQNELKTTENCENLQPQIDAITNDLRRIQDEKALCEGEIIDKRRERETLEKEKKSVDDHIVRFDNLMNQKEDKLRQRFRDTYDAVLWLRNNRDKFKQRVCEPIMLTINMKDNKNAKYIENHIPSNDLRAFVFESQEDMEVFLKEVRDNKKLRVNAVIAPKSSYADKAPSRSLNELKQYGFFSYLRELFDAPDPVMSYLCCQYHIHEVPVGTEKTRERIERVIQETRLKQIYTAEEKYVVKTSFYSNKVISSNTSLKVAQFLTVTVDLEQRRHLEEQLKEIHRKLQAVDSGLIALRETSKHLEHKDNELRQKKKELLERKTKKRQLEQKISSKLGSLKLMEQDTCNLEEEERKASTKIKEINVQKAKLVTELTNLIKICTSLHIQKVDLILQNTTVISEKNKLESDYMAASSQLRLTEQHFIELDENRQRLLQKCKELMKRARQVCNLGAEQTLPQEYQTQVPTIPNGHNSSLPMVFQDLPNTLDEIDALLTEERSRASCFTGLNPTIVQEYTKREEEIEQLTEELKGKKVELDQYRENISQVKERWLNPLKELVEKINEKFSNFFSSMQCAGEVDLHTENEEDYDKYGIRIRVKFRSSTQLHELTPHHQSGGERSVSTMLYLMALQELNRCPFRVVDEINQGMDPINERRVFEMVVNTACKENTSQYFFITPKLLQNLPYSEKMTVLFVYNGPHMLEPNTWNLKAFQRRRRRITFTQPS

Row | Variant | effect of a mutation on the interaction
1 | G506R | decreasing interaction

Variants of: B2
Conditions: with smc6_schpo smc6, P53692

Row | Variant | effect of a mutation on the interaction
2 | G540R | decreasing interaction
